This note sets out measurements from IntAct's records for PubMed 26524528.

Experiment [1] deals with lmnb1_human LMNB1 (UniProt P20700).
Experiment [2] shares this target. This is another data set of the same source.
The target is the same in experiment [3]. This is another data set of the same source.

As to “Microtubule-associated protein 1 light chain 3 beta (Homo sapiens) (from UniProt Q9GZQ8) G120A”, the “effect of a mutation on the interaction” value with lmnb1_human LMNB1 [1] is “decreasing interaction strength”; with lmnb1_human LMNB1 [2], “disrupting interaction strength”.
Regarding “Microtubule-associated protein 1 light chain 3 beta (Homo sapiens) (from UniProt Q9GZQ8) R10A;R11A”, the “effect of a mutation on the interaction” value in the experiment with lmnb1_human LMNB1 [3] was “disrupting interaction strength”.
